According to US20250346673A1 (DUALITY BIOLOGICS SUZHOU, published 2025):

Legend:
human FcγRIIA (H167) [1] = target: T1, human FcγRIIA (H167) (human, UniProt P12318 36-218, limits assumed, biotinylated (site not stated)); experiment: SPR, FcγRIIA (H167); against the wild-type Fc antibody Hu033-03
T1 construct: also called Fey RIIA (H167)
T1 sequence (looked up): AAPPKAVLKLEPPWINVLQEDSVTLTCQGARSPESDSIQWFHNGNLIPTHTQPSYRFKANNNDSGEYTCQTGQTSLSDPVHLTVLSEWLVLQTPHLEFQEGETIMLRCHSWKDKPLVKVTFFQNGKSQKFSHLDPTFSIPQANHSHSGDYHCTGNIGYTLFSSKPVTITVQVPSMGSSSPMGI
Procedure: (§1) Antibody kinetics or affinity parameters were measured using BIAcore 8K and freshly fixed biotinylated human Fe γ RIIA(R167)/Fc γ RIIA (H167) SA chips. The experiment was run at 25° C. with a running buffer of 1×HBS-EP+(10 mM HEPES pH 7.4, 150 mM NaCl, 3 mM EDTA, 0.05% Surfactant P20). […] The binding and dissociation times of the antibody were 60 and 90 seconds, respectively. Two zero concentration samples are used to remove background signals. The sample was injected in a multi cycle manner, the analyte can be fully dissociated from the chip surface at the end of each cycle, and no regeneration step was applied. Data analysis was perform using Biacore Insight Evaluation Software (Version 2.0.15.12933). After deducting the reference channel (flow cell 1) and two zero concentration signals, affinity analysis was performed using a 1:1 binding model or steady-state model for curve fitting and calculation of kinetic parameters.

human FcγRIIA (H167) [2] = target: T1, human FcγRIIA (H167); experiment: SPR (BIAcore 8K), biotinylated FcγRIIA (H167) on SA chip, antibody as analyte, 1:1 binding
Procedure: as §1

human FcγRIIA (R167) [3] = target: T2, human FcγRIIA (R167) (human, UniProt P12318 36-218, limits assumed, biotinylated (site not stated)); experiment: SPR, FcγRIIA (R167); against the wild-type Fc antibody Hu033-03
T2 construct: also called Fe γ RIIA(R167); Fcγ RIJA (R167)
T2 sequence (looked up): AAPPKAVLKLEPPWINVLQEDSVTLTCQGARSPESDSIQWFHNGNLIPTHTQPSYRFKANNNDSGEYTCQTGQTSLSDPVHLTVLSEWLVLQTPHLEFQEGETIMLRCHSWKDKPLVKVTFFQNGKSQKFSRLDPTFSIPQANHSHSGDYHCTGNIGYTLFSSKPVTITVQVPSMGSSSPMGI
Procedure: as §1

human FcγRIIA (R167) [4] = target: T2, human FcγRIIA (R167); experiment: SPR (BIAcore 8K), biotinylated FcγRIIA (R167) on SA chip, antibody as analyte, 1:1 binding
Procedure: as §1

human BDCA2 [5] = target: T3, human BDCA2 (human, UniProt Q8WTT0 1-213); experiment: cell-based or functional assay
T3 sequence (looked up): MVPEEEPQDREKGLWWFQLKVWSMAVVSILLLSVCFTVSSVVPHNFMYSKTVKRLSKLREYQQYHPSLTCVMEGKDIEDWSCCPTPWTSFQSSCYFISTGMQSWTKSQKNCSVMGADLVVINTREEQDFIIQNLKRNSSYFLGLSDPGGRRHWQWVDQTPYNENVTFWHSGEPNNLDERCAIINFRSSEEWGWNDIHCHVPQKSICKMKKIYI

cynomolgus BDCA2 = target: T4, cynomolgus BDCA2 (cynomolgus monkey, UniProt A0A2K5UWP4 1-212); experiment: FACS on 293F-cynoBDCA2 cells; EC50 table under the plot, unit from the x axis (nM)
T4 construct: whole, on cells; also called Cyno BDCA2; cynoBDCA2
T4 sequence: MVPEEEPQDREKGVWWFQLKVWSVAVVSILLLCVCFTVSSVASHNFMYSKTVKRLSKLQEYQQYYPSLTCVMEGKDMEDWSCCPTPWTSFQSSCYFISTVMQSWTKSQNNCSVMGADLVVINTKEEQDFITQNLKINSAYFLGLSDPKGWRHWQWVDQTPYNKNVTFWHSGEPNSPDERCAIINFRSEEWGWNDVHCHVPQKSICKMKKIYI
Procedure: (§2) The cells were recovered and resuspended to 2×10⁶/mL with FACS buffer (PBS+2% FBS). The cells were added to 3799 cell plates (Corning) at 100 μL/well, and the supernatant was discarded after centrifugation at 300 g. The antibodies were serially diluted with FACS buffer (Id.), the diluted antibodies were added to centrifuged cells and the cells were resuspended. The cells were incubated at 4° C. for 1 h. The incubated cells were then centrifuged at […] for 5 min and washed twice with FACS buffer. 100 μL Donkey anti-Mouse IgG (H+L) Highly Cross-Adsorbed Secondary Antibody-Alexa Fluor 488 (Invitrogen, A21202; 1:1000) secondary antibody was added to the cells, which were washed twice with FACS buffer after incubation at 4° C. for 1 h, resuspended with PBS, analyzed with FACS (BD FACS CantoTM II) instrument. The curve was fitted with GraphPad Prism6, and EC₅₀ values were calculated.

human BDCA2 [6] = target: T3, human BDCA2; experiment: FACS on CHOK1-hBDCA2 cells; EC50 table under the plot, unit from the x axis (nM)
Procedure: as §2

human FcγRIIA (H167) [7] = target: T1, human FcγRIIA (H167); experiment: SPR, FcγRIIA (H167); against the wild-type Fc antibody Hu033-20
Procedure: as §1

human FcγRIIA (R167) [8] = target: T2, human FcγRIIA (R167); experiment: SPR, FcγRIIA (R167); against the wild-type Fc antibody Hu033-20
Procedure: as §1

B1: Hu033-03-T1 (antibody, human IgG1, kappa)
heavy: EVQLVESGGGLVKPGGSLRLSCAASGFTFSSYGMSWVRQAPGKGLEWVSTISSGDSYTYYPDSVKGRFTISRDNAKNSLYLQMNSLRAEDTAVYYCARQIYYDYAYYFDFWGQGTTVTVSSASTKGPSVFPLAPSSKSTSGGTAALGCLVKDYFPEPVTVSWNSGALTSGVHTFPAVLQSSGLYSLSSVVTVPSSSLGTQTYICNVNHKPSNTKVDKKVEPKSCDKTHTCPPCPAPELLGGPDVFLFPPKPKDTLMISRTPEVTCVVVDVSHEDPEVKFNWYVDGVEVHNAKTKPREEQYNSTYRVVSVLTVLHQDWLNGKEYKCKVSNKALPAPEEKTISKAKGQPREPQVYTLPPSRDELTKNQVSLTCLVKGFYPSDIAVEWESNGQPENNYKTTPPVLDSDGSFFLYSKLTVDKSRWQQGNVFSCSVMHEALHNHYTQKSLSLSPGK
light: DIVLTQSPASLAVSPGQRATITCRASESVSFRTSHLMHWYQQKPGQPPKLLIYGASNLESGVPARFSGSGSETDFTLTINPVEAEDTANYFCQQSIEDPPTFGGGTKVEIKRTVAAPSVFIFPPSDEQLKSGTASVVCLLNNFYPREAKVQWKVDNALQSGNSQESVTEQDSKDSTYSLSSTLTLSKADYEKHKVYACEVTHQGLSSPVTKSFNRGEC
notes: Fc-mutated Hu033-03 (IgG1)
Multiple of affinity (human FcγRIIA (H167) [1]): 2.3 fold | Kd (human FcγRIIA (H167) [2]): 490 nM | koff (human FcγRIIA (H167) [2]): 0.23 s⁻¹ | kon (human FcγRIIA (H167) [2]): 470000 M⁻¹ s⁻¹ | Multiple of affinity (human FcγRIIA (R167) [3]): 4 fold | Kd (human FcγRIIA (R167) [4]): 310 nM | koff (human FcγRIIA (R167) [4]): 0.232 s⁻¹ | kon (human FcγRIIA (R167) [4]): 750000 M⁻¹ s⁻¹

B2: Hu033-03-T2 (antibody, human IgG1, kappa)
heavy: EVQLVESGGGLVKPGGSLRLSCAASGFTFSSYGMSWVRQAPGKGLEWVSTISSGDSYTYYPDSVKGRFTISRDNAKNSLYLQMNSLRAEDTAVYYCARQIYYDYAYYFDFWGQGTTVTVSSASTKGPSVFPLAPSSKSTSGGTAALGCLVKDYFPEPVTVSWNSGALTSGVHTFPAVLQSSGLYSLSSVVTVPSSSLGTQTYICNVNHKPSNTKVDKKVEPKSCDKTHTCPPCPAPELLAGPDVFLFPPKPKDTLMISRTPEVTCVVVDVSHEDPEVKFNWYVDGVEVHNAKTKPREEQYNSTYRVVSVLTVLHQDWLNGKEYKCKVSNKALPAPEEKTISKAKGQPREPQVYTLPPSRDELTKNQVSLTCLVKGFYPSDIAVEWESNGQPENNYKTTPPVLDSDGSFFLYSKLTVDKSRWQQGNVFSCSVMHEALHNHYTQKSLSLSPGK
light: DIVLTQSPASLAVSPGQRATITCRASESVSFRTSHLMHWYQQKPGQPPKLLIYGASNLESGVPARFSGSGSETDFTLTINPVEAEDTANYFCQQSIEDPPTFGGGTKVEIKRTVAAPSVFIFPPSDEQLKSGTASVVCLLNNFYPREAKVQWKVDNALQSGNSQESVTEQDSKDSTYSLSSTLTLSKADYEKHKVYACEVTHQGLSSPVTKSFNRGEC
notes: Fc-mutated Hu033-03 (IgG1)
Multiple of affinity (human FcγRIIA (H167) [1]): 10 fold | Kd (human FcγRIIA (H167) [2]): 103 nM | koff (human FcγRIIA (H167) [2]): 0.0585 s⁻¹ | kon (human FcγRIIA (H167) [2]): 570000 M⁻¹ s⁻¹ | Multiple of affinity (human FcγRIIA (R167) [3]): 13.7 fold | Kd (human FcγRIIA (R167) [4]): 45.8 nM | koff (human FcγRIIA (R167) [4]): 0.0899 s⁻¹ | kon (human FcγRIIA (R167) [4]): 1.96e+06 M⁻¹ s⁻¹

B3: Hu033-03-T3 (antibody, human IgG1, kappa)
heavy: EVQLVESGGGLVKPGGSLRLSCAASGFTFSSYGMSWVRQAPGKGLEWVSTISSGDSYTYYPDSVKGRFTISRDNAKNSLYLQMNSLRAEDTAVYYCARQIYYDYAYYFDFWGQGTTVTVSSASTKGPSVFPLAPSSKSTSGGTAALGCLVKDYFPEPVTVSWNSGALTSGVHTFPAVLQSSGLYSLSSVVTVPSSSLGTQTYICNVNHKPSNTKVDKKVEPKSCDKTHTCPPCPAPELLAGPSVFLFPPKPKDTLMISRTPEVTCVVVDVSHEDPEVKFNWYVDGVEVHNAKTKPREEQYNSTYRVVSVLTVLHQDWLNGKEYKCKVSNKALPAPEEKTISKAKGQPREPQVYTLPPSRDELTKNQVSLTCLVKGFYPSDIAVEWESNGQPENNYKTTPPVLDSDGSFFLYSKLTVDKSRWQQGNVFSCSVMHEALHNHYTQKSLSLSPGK
light: DIVLTQSPASLAVSPGQRATITCRASESVSFRTSHLMHWYQQKPGQPPKLLIYGASNLESGVPARFSGSGSETDFTLTINPVEAEDTANYFCQQSIEDPPTFGGGTKVEIKRTVAAPSVFIFPPSDEQLKSGTASVVCLLNNFYPREAKVQWKVDNALQSGNSQESVTEQDSKDSTYSLSSTLTLSKADYEKHKVYACEVTHQGLSSPVTKSFNRGEC
notes: Fc-mutated Hu033-03 (IgG1)
Multiple of affinity (human FcγRIIA (H167) [1]): 7.3 fold | Kd (human FcγRIIA (H167) [2]): 162 nM | koff (human FcγRIIA (H167) [2]): 0.0894 s⁻¹ | kon (human FcγRIIA (H167) [2]): 551000 M⁻¹ s⁻¹ | Multiple of affinity (human FcγRIIA (R167) [3]): 4.4 fold | Kd (human FcγRIIA (R167) [4]): 303 nM | koff (human FcγRIIA (R167) [4]): 0.225 s⁻¹ | kon (human FcγRIIA (R167) [4]): 741000 M⁻¹ s⁻¹

B4: mAb005 (antibody, V domains shown)
VH: QVQLKQSGPGLVQPSQSLSITCTVSGFSLTNYGVHWVRQSPGKGLEWLGVIWSGESTDYDAAFISRLSISKDNSKSQVFFKMNSLQADDSAIYYCARRRSHYYGYVMDYWGQGTSVTVSS
VL: DIVLTQSPASLAVSLGQRATISCKASQSIDYDGIGYLNWYQHKPGQPPKLLIYAASNLESGIPARFSGSGSGTDFTLNIHPVEEEDAATYYCQQSNEDPPTFGSGTKLEIK
notes: Mouse hybridoma antibody
IC50 for inhibiting cytokine IFNα release, CpG-A stimulated human PBMC (human BDCA2 [5]): 0.0867 nM | EC50 (cynomolgus BDCA2): 2.11 nM | EC50 (human BDCA2 [6]): 1.83 nM

B5: Hu033-20-T1 (antibody, human IgG1, kappa)
heavy: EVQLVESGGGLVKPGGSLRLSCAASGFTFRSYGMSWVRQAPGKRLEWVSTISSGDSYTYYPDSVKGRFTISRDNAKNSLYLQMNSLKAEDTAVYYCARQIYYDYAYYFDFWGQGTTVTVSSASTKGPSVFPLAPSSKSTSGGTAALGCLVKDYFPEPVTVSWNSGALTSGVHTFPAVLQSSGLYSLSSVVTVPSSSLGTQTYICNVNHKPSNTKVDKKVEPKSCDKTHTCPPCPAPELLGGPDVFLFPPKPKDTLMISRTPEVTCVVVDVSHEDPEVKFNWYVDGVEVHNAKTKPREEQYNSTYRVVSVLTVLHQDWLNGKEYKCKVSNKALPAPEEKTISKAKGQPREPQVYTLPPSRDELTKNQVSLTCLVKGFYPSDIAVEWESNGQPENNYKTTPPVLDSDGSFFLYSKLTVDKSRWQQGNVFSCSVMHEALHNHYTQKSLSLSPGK
light: DIVMTQSPDSLAVSLGERATINCRASESVSFRTSHLMHWYQQKPGQPPKLLIYGASNLESGVPDRFSGSGSGTDFTLTISSLQAEDVAVYYCQQSIEDPPTFGGGTKVEIKRTVAAPSVFIFPPSDEQLKSGTASVVCLLNNFYPREAKVQWKVDNALQSGNSQESVTEQDSKDSTYSLSSTLTLSKADYEKHKVYACEVTHQGLSSPVTKSFNRGEC
notes: Fc-mutated Hu033-20 (IgG1)
Multiple of affinity (human FcγRIIA (H167) [7]): 2.5 fold | Kd (human FcγRIIA (H167) [2]): 489 nM | koff (human FcγRIIA (H167) [2]): 0.242 s⁻¹ | kon (human FcγRIIA (H167) [2]): 494000 M⁻¹ s⁻¹ | Multiple of affinity (human FcγRIIA (R167) [8]): 5.1 fold | Kd (human FcγRIIA (R167) [4]): 312 nM | koff (human FcγRIIA (R167) [4]): 0.249 s⁻¹ | kon (human FcγRIIA (R167) [4]): 798000 M⁻¹ s⁻¹

B6: Hu033-20-T2 (antibody, human IgG1, kappa)
heavy: EVQLVESGGGLVKPGGSLRLSCAASGFTFRSYGMSWVRQAPGKRLEWVSTISSGDSYTYYPDSVKGRFTISRDNAKNSLYLQMNSLKAEDTAVYYCARQIYYDYAYYFDFWGQGTTVTVSSASTKGPSVFPLAPSSKSTSGGTAALGCLVKDYFPEPVTVSWNSGALTSGVHTFPAVLQSSGLYSLSSVVTVPSSSLGTQTYICNVNHKPSNTKVDKKVEPKSCDKTHTCPPCPAPELLAGPDVFLFPPKPKDTLMISRTPEVTCVVVDVSHEDPEVKFNWYVDGVEVHNAKTKPREEQYNSTYRVVSVLTVLHQDWLNGKEYKCKVSNKALPAPEEKTISKAKGQPREPQVYTLPPSRDELTKNQVSLTCLVKGFYPSDIAVEWESNGQPENNYKTTPPVLDSDGSFFLYSKLTVDKSRWQQGNVFSCSVMHEALHNHYTQKSLSLSPGK
light: DIVMTQSPDSLAVSLGERATINCRASESVSFRTSHLMHWYQQKPGQPPKLLIYGASNLESGVPDRFSGSGSGTDFTLTISSLQAEDVAVYYCQQSIEDPPTFGGGTKVEIKRTVAAPSVFIFPPSDEQLKSGTASVVCLLNNFYPREAKVQWKVDNALQSGNSQESVTEQDSKDSTYSLSSTLTLSKADYEKHKVYACEVTHQGLSSPVTKSFNRGEC
notes: Fc-mutated Hu033-20 (IgG1)
Multiple of affinity (human FcγRIIA (H167) [7]): 12.1 fold | Kd (human FcγRIIA (H167) [2]): 95.5 nM | koff (human FcγRIIA (H167) [2]): 0.0577 s⁻¹ | kon (human FcγRIIA (H167) [2]): 604000 M⁻¹ s⁻¹ | Multiple of affinity (human FcγRIIA (R167) [8]): 17.7 fold | Kd (human FcγRIIA (R167) [4]): 41.1 nM | koff (human FcγRIIA (R167) [4]): 0.0821 s⁻¹ | kon (human FcγRIIA (R167) [4]): 2e+06 M⁻¹ s⁻¹

B7: mAb002 (antibody, V domains shown)
VH: QIQLVQSGPELKKPGETVKISCRASGYSFTDYSMHWVKQAPGKGLKWVGWINTETGEPTYADDFKGRFALSLETSATSAYLQINNLKNEDTATYFCARGGDGFPYWYFNVWGAGTTVTVSS
VL: DIVLTQSPTSLAVSLGQRTNISCRASQSVSTSSNSYIHWYQQKPGQPPKLLIKYASNLDSGVPARFSGSGSGTDFTLNIHPVEEEDTSTYYCQHSWEIPFTFGSGTKLEIK
notes: Mouse hybridoma antibody
EC50 (cynomolgus BDCA2): 7.05 nM | EC50 (human BDCA2 [6]): 1.89 nM
